Values of other authors as cited in article PMC12336664.

Molecular target: FXa (Homo sapiens) (UniProt P00742)
Sequence of UniProt P00742 (P00742 41-179, chain 1 of 2): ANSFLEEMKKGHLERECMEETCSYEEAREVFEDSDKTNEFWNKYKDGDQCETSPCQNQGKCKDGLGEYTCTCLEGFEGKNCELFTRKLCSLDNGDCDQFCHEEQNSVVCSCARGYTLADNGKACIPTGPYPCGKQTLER
Sequence of UniProt P00742 (P00742 235-488, chain 2 of 2): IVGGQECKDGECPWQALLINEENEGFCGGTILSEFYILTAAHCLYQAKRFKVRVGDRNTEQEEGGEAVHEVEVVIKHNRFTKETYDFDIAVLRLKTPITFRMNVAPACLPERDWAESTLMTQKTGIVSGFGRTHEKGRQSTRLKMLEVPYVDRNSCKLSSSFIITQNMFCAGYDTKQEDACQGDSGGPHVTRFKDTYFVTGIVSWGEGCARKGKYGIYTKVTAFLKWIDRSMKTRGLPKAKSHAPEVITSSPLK

- Kd: 0.02 nM
Substance: TFPIα (from UniProt P10646)
